Positions of bridges follow the written chain, without caps; N, C: chain ends. Non-standard residues stand in square brackets, D forms with d. Bta = N[C@@H](Cc1csc2ccccc12)C(=O)O; NMeNle = CCCC[C@H](NC)C(=O)O; NMeA = CN[C@@H](C)C(=O)O; Sar = CNCC(=O)O
target: T1, hPDL1(19-239)-TVMV-His (human, UniProt Q9NZQ7 19-239); experiment: HTRF competition, PD-1-Ig (20 nM) binding to human PD-L1-His (10 nM)
T1 construct: The construct name says 19-239, the running text says amino acids 18-239; Expressed in HEK293T cells; also called PD-L1-His; PD-L1-TVMV-His
T1 sequence (Q9NZQ7 other isoform, or with tags, fused parts or gaps limits assumed): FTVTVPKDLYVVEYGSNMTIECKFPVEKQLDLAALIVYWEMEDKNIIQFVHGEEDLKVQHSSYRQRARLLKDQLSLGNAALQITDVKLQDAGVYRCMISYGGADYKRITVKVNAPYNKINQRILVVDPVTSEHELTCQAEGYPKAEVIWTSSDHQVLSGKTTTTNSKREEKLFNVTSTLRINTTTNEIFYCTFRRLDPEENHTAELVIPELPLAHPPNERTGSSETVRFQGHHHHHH
Protocol: (§1) All binding studies were performed in an HTRF assay buffer consisting of dPBS supplemented with 0.1% (w/v) bovine serum albumin and 0.05% (v/v) Tween-20. […] PD-L1 fusion proteins from either human, cynomologous macaques, or mouse were used. HTRF detection was achieved using europium crypate-labeled anti-Ig monoclonal antibody (1 nM final) and allophycocyanin (APC) labeled anti-His monoclonal antibody (20 nM final). Antibodies were diluted in HTRF detection buffer and 5 μl was dispensed on top of binding reaction. The reaction was allowed to equilibrate for 30 minutes and signal (665 nm/620 nm ratio) was obtained using an EnVision fluorometer. […]
HTRF Experiments were performed essentially as outlined supra. Variant macrocyclic peptides were created as outlined herein.

| IC50 [nM] | Binder |
| --- | --- |
| 7 | {CH2CO}-F[NMeA]NPHL[Sar]WS[Bta][NMeNle][NMeNle]RCG-NH2 (thioether N-14; SMILES CCCC[C@H]1C(=O)N(C)[C@@H](CCCC)C(=O)N[C@@H](CCCNC(=N)N)C(=O)N[C@H](C(=O)NCC(N)=O)CSCC(=O)N[C@@H](Cc2ccccc2)C(=O)N(C)[C@@H](C)C(=O)N[C@@H](CC(N)=O)C(=O)N2CCC[C@H]2C(=O)N[C@@H](Cc2c[nH]cn2)C(=O)N[C@@H](CC(C)C)C(=O)N(C)CC(=O)N[C@@H](Cc2c[nH]c3ccccc23)C(=O)N[C@@H](CO)C(=O)N[C@@H](Cc2csc3ccccc23)C(=O)N1C, macrocyclic peptide cyclized via the ClAc moiety with the downstream cysteine) [Compound No. 64] |
| 144 | FANPHLGWSWSXRCG (HELM PEPTIDE1{[O=C(C[*:3])[*:2]].F.[meA].N.P.H.L.[Sar].W.S.W.[meS].[CCCC[C@@H](C(=O)[*:2])N(C)[*:1]].R.C.G.[am]}$PEPTIDE1,PEPTIDE1,1:R3-15:R3$$$V2.0; SMILES CCCC[C@H]1C(=O)N[C@@H](CCCNC(=N)N)C(=O)N[C@H](C(=O)NCC(N)=O)CSCC(=O)N[C@@H](Cc2ccccc2)C(=O)N(C)[C@@H](C)C(=O)N[C@@H](CC(N)=O)C(=O)N2CCC[C@H]2C(=O)N[C@@H](Cc2c[nH]cn2)C(=O)N[C@@H](CC(C)C)C(=O)N(C)CC(=O)N[C@@H](Cc2c[nH]c3ccccc23)C(=O)N[C@@H](CO)C(=O)N[C@@H](Cc2c[nH]c3ccccc23)C(=O)N(C)[C@@H](CO)C(=O)N1C, macrocyclic peptide cyclized via the ClAc moiety with the downstream cysteine) [Compound No. 66] |
| 108 | FANPHLGWSWFXRCG (HELM PEPTIDE1{[O=C(C[*:3])[*:2]].F.[meA].N.P.H.L.[Sar].W.S.W.[meF].[CCCC[C@@H](C(=O)[*:2])N(C)[*:1]].R.C.G.[am]}$PEPTIDE1,PEPTIDE1,1:R3-15:R3$$$V2.0; SMILES CCCC[C@H]1C(=O)N[C@@H](CCCNC(=N)N)C(=O)N[C@H](C(=O)NCC(N)=O)CSCC(=O)N[C@@H](Cc2ccccc2)C(=O)N(C)[C@@H](C)C(=O)N[C@@H](CC(N)=O)C(=O)N2CCC[C@H]2C(=O)N[C@@H](Cc2c[nH]cn2)C(=O)N[C@@H](CC(C)C)C(=O)N(C)CC(=O)N[C@@H](Cc2c[nH]c3ccccc23)C(=O)N[C@@H](CO)C(=O)N[C@@H](Cc2c[nH]c3ccccc23)C(=O)N(C)[C@@H](Cc2ccccc2)C(=O)N1C, macrocyclic peptide cyclized via the ClAc moiety with the downstream cysteine) [Compound No. 67] |
| 77 | FANPHLGWSWFXRCG (HELM PEPTIDE1{[O=C(C[*:3])[*:2]].F.[meA].N.P.H.L.[Sar].W.S.W.F.[CCCC[C@@H](C(=O)[*:2])N(C)[*:1]].R.C.G.[am]}$PEPTIDE1,PEPTIDE1,1:R3-15:R3$$$V2.0; SMILES CCCC[C@H]1C(=O)N[C@@H](CCCNC(=N)N)C(=O)N[C@H](C(=O)NCC(N)=O)CSCC(=O)N[C@@H](Cc2ccccc2)C(=O)N(C)[C@@H](C)C(=O)N[C@@H](CC(N)=O)C(=O)N2CCC[C@H]2C(=O)N[C@@H](Cc2c[nH]cn2)C(=O)N[C@@H](CC(C)C)C(=O)N(C)CC(=O)N[C@@H](Cc2c[nH]c3ccccc23)C(=O)N[C@@H](CO)C(=O)N[C@@H](Cc2c[nH]c3ccccc23)C(=O)N[C@@H](Cc2ccccc2)C(=O)N1C, macrocyclic peptide cyclized via the ClAc moiety with the downstream cysteine) [Compound No. 69] |
| 43 | FANPHLGWSWLXRCG (HELM PEPTIDE1{[O=C(C[*:3])[*:2]].F.[meA].N.P.H.L.[Sar].W.S.W.[meL].[CCCC[C@@H](C(=O)[*:2])N(C)[*:1]].R.C.G.[am]}$PEPTIDE1,PEPTIDE1,1:R3-15:R3$$$V2.0; SMILES CCCC[C@H]1C(=O)N[C@@H](CCCNC(=N)N)C(=O)N[C@H](C(=O)NCC(N)=O)CSCC(=O)N[C@@H](Cc2ccccc2)C(=O)N(C)[C@@H](C)C(=O)N[C@@H](CC(N)=O)C(=O)N2CCC[C@H]2C(=O)N[C@@H](Cc2c[nH]cn2)C(=O)N[C@@H](CC(C)C)C(=O)N(C)CC(=O)N[C@@H](Cc2c[nH]c3ccccc23)C(=O)N[C@@H](CO)C(=O)N[C@@H](Cc2c[nH]c3ccccc23)C(=O)N(C)[C@@H](CC(C)C)C(=O)N1C, macrocyclic peptide cyclized via the ClAc moiety with the downstream cysteine) [Compound No. 65] |
| 2060 | FANPHLGWSWSXRCG (HELM PEPTIDE1{[O=C(C[*:3])[*:2]].F.[meA].N.P.H.L.[Sar].W.S.W.S.[CCCC[C@@H](C(=O)[*:2])N(C)[*:1]].R.C.G.[am]}$PEPTIDE1,PEPTIDE1,1:R3-15:R3$$$V2.0; SMILES CCCC[C@H]1C(=O)N[C@@H](CCCNC(=N)N)C(=O)N[C@H](C(=O)NCC(N)=O)CSCC(=O)N[C@@H](Cc2ccccc2)C(=O)N(C)[C@@H](C)C(=O)N[C@@H](CC(N)=O)C(=O)N2CCC[C@H]2C(=O)N[C@@H](Cc2c[nH]cn2)C(=O)N[C@@H](CC(C)C)C(=O)N(C)CC(=O)N[C@@H](Cc2c[nH]c3ccccc23)C(=O)N[C@@H](CO)C(=O)N[C@@H](Cc2c[nH]c3ccccc23)C(=O)N[C@@H](CO)C(=O)N1C, macrocyclic peptide cyclized via the ClAc moiety with the downstream cysteine) [Compound No. 68] |

target: T1, hPDL1(19-239)-TVMV-His; experiment: as above; remark: another data set of the same source
Protocol: as §1
HTRF experiments were performed essentially as outlined supra. Variant macrocyclic peptides were created as outlined herein.

| IC50 [nM] | Binder |
| --- | --- |
| 7 | FFXGDVFYGWYLCG (HELM PEPTIDE1{[O=C(C[*:3])[*:2]].F.[meF].[CCCC[C@@H](C(=O)[*:2])N(C)[*:1]].[Sar].D.V.[meF].Y.[Sar].W.Y.L.C.G.[am]}$PEPTIDE1,PEPTIDE1,1:R3-14:R3$$$V2.0; SMILES CCCC[C@H]1C(=O)N(C)CC(=O)N[C@@H](CC(=O)O)C(=O)N[C@@H](C(C)C)C(=O)N(C)[C@@H](Cc2ccccc2)C(=O)N[C@@H](Cc2ccc(O)cc2)C(=O)N(C)CC(=O)N[C@@H](Cc2c[nH]c3ccccc23)C(=O)N[C@@H](Cc2ccc(O)cc2)C(=O)N[C@@H](CC(C)C)C(=O)N[C@H](C(=O)NCC(N)=O)CSCC(=O)N[C@@H](Cc2ccccc2)C(=O)N(C)[C@@H](Cc2ccccc2)C(=O)N1C, macrocyclic peptide cyclized via the ClAc moiety with the downstream cysteine; parent of the Formula II series) [Compound No. 71] |
| 4230 | AFXGDVFYGWYLCG (HELM PEPTIDE1{[O=C(C[*:3])[*:2]].A.[meF].[CCCC[C@@H](C(=O)[*:2])N(C)[*:1]].[Sar].D.V.[meF].Y.[Sar].W.Y.L.C.G.[am]}$PEPTIDE1,PEPTIDE1,1:R3-14:R3$$$V2.0; SMILES CCCC[C@H]1C(=O)N(C)CC(=O)N[C@@H](CC(=O)O)C(=O)N[C@@H](C(C)C)C(=O)N(C)[C@@H](Cc2ccccc2)C(=O)N[C@@H](Cc2ccc(O)cc2)C(=O)N(C)CC(=O)N[C@@H](Cc2c[nH]c3ccccc23)C(=O)N[C@@H](Cc2ccc(O)cc2)C(=O)N[C@@H](CC(C)C)C(=O)N[C@H](C(=O)NCC(N)=O)CSCC(=O)N[C@@H](C)C(=O)N(C)[C@@H](Cc2ccccc2)C(=O)N1C, macrocyclic peptide cyclized via the ClAc moiety with the downstream cysteine; variant of Compound No. 71 (Ala at 1)) [Compound No. 72] |
| 264 | FFXGDAFYGWYLCG (HELM PEPTIDE1{[O=C(C[*:3])[*:2]].F.[meF].[CCCC[C@@H](C(=O)[*:2])N(C)[*:1]].[Sar].D.A.[meF].Y.[Sar].W.Y.L.C.G.[am]}$PEPTIDE1,PEPTIDE1,1:R3-14:R3$$$V2.0; SMILES CCCC[C@H]1C(=O)N(C)CC(=O)N[C@@H](CC(=O)O)C(=O)N[C@@H](C)C(=O)N(C)[C@@H](Cc2ccccc2)C(=O)N[C@@H](Cc2ccc(O)cc2)C(=O)N(C)CC(=O)N[C@@H](Cc2c[nH]c3ccccc23)C(=O)N[C@@H](Cc2ccc(O)cc2)C(=O)N[C@@H](CC(C)C)C(=O)N[C@H](C(=O)NCC(N)=O)CSCC(=O)N[C@@H](Cc2ccccc2)C(=O)N(C)[C@@H](Cc2ccccc2)C(=O)N1C, macrocyclic peptide cyclized via the ClAc moiety with the downstream cysteine; variant of Compound No. 71 (Ala at 6)) [Compound No. 80] |
| 35 | FFXGDVFAGWYLCG (HELM PEPTIDE1{[O=C(C[*:3])[*:2]].F.[meF].[CCCC[C@@H](C(=O)[*:2])N(C)[*:1]].[Sar].D.V.[meF].A.[Sar].W.Y.L.C.G.[am]}$PEPTIDE1,PEPTIDE1,1:R3-14:R3$$$V2.0; SMILES CCCC[C@H]1C(=O)N(C)CC(=O)N[C@@H](CC(=O)O)C(=O)N[C@@H](C(C)C)C(=O)N(C)[C@@H](Cc2ccccc2)C(=O)N[C@@H](C)C(=O)N(C)CC(=O)N[C@@H](Cc2c[nH]c3ccccc23)C(=O)N[C@@H](Cc2ccc(O)cc2)C(=O)N[C@@H](CC(C)C)C(=O)N[C@H](C(=O)NCC(N)=O)CSCC(=O)N[C@@H](Cc2ccccc2)C(=O)N(C)[C@@H](Cc2ccccc2)C(=O)N1C, macrocyclic peptide cyclized via the ClAc moiety with the downstream cysteine; variant of Compound No. 71 (Ala at 8)) [Compound No. 83] |
| 24 | FFXADVFYGWYLCG (HELM PEPTIDE1{[O=C(C[*:3])[*:2]].F.[meF].[CCCC[C@@H](C(=O)[*:2])N(C)[*:1]].[meA].D.V.[meF].Y.[Sar].W.Y.L.C.G.[am]}$PEPTIDE1,PEPTIDE1,1:R3-14:R3$$$V2.0; SMILES CCCC[C@H]1C(=O)N(C)[C@@H](C)C(=O)N[C@@H](CC(=O)O)C(=O)N[C@@H](C(C)C)C(=O)N(C)[C@@H](Cc2ccccc2)C(=O)N[C@@H](Cc2ccc(O)cc2)C(=O)N(C)CC(=O)N[C@@H](Cc2c[nH]c3ccccc23)C(=O)N[C@@H](Cc2ccc(O)cc2)C(=O)N[C@@H](CC(C)C)C(=O)N[C@H](C(=O)NCC(N)=O)CSCC(=O)N[C@@H](Cc2ccccc2)C(=O)N(C)[C@@H](Cc2ccccc2)C(=O)N1C, macrocyclic peptide cyclized via the ClAc moiety with the downstream cysteine; variant of Compound No. 71 (mAla at 4)) [Compound No. 77] |

— patent US20140294898A1 (published 2014)
